# Experimental data: publication PMC3231483
# What was measured:
# [1] = biological target: T1, thrombin (human, UniProt P00734;P00734 328-363;364-622); assay: guided mode resonance sensor (kinetic, Langmuir 1:1); 0.25 uM thrombin; ka 2.06e5 M-1s-1, kd 1.05e-1 s-1; Aptamer immobilized from 1 uM in PBS; assay buffer, salt and temperature not given in the material (Tris-HCl pH 7.4 and sodium phosphate listed as reagents); re
# [2] = biological target: T1, thrombin; assay: guided mode resonance sensor (kinetic, Langmuir 1:1); 0.50 uM thrombin; ka 1.52e5 M-1s-1, kd 0.61e-1 s-1; Aptamer immobilized from 1 uM in PBS; assay buffer, salt and temperature not given in the material (Tris-HCl pH 7.4 and sodium phosphate listed as reagents); re
# [3] = biological target: T1, thrombin; assay: guided mode resonance sensor (kinetic, Langmuir 1:1); 0.75 uM thrombin; ka 1.83e5 M-1s-1, kd 0.30e-1 s-1; Aptamer immobilized from 1 uM in PBS; assay buffer, salt and temperature not given in the material (Tris-HCl pH 7.4 and sodium phosphate listed as reagents); re
# [4] = biological target: T1, thrombin; assay: guided mode resonance sensor (kinetic, Langmuir 1:1); 1.00 uM thrombin; ka 0.18e5 M-1s-1, kd 1.54e-1 s-1; Aptamer immobilized from 1 uM in PBS; assay buffer, salt and temperature not given in the material (Tris-HCl pH 7.4 and sodium phosphate listed as reagents); re
# [5] = biological target: T1, thrombin; assay: guided mode resonance sensor (kinetic, Langmuir 1:1); 1.50 uM thrombin; ka 0.20e5 M-1s-1, kd 1.33e-1 s-1; Aptamer immobilized from 1 uM in PBS; assay buffer, salt and temperature not given in the material (Tris-HCl pH 7.4 and sodium phosphate listed as reagents); re
# [6] = biological target: T1, thrombin; assay: guided mode resonance sensor (Langmuir linear regression); 0.25-1 uM thrombin; order of magnitude only; Aptamer immobilized from 1 uM in PBS; assay buffer, salt and temperature not given in the material (Tris-HCl pH 7.4 and sodium phosphate listed as reagents); re
binder,measurement,setting,value
"AGTCCGTGGTAGGGCAGGTTGGGGTGACT (structured_DNA, 5' NH2) [29-mer thrombin aptamer (TBA)]",Ka,[1],1.95 10^6 M^-1
same,Ka,[2],2.5 10^6 M^-1
same,Ka,[3],6.18 10^6 M^-1
same,Ka,[4],0.12 10^6 M^-1
same,Ka,[5],0.15 10^6 M^-1
same,Ka,[6],~1 10^6 M^-1
